Results on five substances are retold here after publication PMC12386367, “Importin α3 Is Tolerant to Nuclear Localization Signal Chirality” (International Journal of Molecular Sciences, 2025).

In general, Kd refers to the equilibrium constant for the complex coming apart. As a reminder, the kon is the rate constant with which the complex forms. Low values mean slow association, high ones fast association.

Read-outs that look alike come from different tables or passages of the source.

For data set [1], the target named is L-NLS-NUPR1phospho NLS (Homo sapiens) (UniProt O60356). The note with it: cited from earlier work.
Data set [2] addresses L-NLS-NUPR1 NLS (Homo sapiens) (UniProt O60356). The conditions noted are these: cited from earlier work.
Data set [3] concerns the target L-NLS-PADI NLS (Homo sapiens) (UniProt Q9UM07). Briefly: ITC. The note with it: cited from earlier work.
Data set [4] deals with L-NLS-NUPR1L NLS (Homo sapiens) (UniProt A6NF83). The data set is described as follows: fluorescence. The note with it: cited from earlier work.
For data set [5], the target named is L-NLS-PADI NLS (Homo sapiens) (UniProt Q9UM07). The data set is described as follows: fluorescence. The conditions noted are these: cited from earlier work.
The nature of data set [6]: Translational diffusion NMR (DOSY) of NLS peptides. The class given is physicochemical. The conditions noted are these: ~100 μM peptide. The source says: For the four peptides, we measured the experimental value of D for dioxane ranging from (1.2 ± 0.1) × 10^−5 to (1.05 ± 0.02) × 10^−5 cm^2 s^−1 in each solution containing the corresponding peptide; we assumed a hydrodynamic radius of 2.12 Å for dioxane (Table 1) under any condition. […] Furthermore, the values of D were similar for the D- and L-peptides, and the latter were already being described as disordered. Thus, we can conclude that the four D-peptides were monomeric and disordered, like the L-form counterparts, and, then, there was no difference in the hydrodynamic properties of the peptides by changing the enantiomeric nature of the residues.
The NMR spectra were acquired at 10 °C on a Bruker Avance III spectrometer (Bruker GmbH, Mannheim, Germany), equipped with a triple-resonance probe and z-pulse field gradients. All NMR experiments with D-NLS peptides were carried out in 50 mM deuterated Tris buffer (not corrected for isotope effects), pH 7.2. Spectra were calibrated with TSP, by considering pH-dependent changes in its chemical shifts; probe temperature was calibrated with pure methanol.
The typical D-NLS peptide concentrations in DOSY experiments were ~100 μM, and 128 scans were acquired, in which the gradient strength was varied linearly in sixteen steps, between 2 and 95% of the total power of the gradient coil. Measurements of the translational self-diffusion coefficient, D, were performed with the pulsed-gradient spin-echo sequence in the presence of 100% D2O. Details on the experimental conditions and fitting of the resulting curves have been described elsewhere. Gradient strength was calibrated by using the value of D for the residual proton water signal in a sample containing 100% D2O, in a 5 mm tube [23]. Gradient length was 2.5 ms; the time between the two pulse gradients in the sequence was 250 ms; and the recovery delay between the bipolar gradients was 100 μs. The signals from methyl groups between 0.8 and 1.0 ppm were used for peak integration, for all the D-NLS peptides. A final concentration of 1% of dioxane, which was assumed to have a hydrodynamic radius Rh of 2.12 Å [23], was added to the solution of each peptide.

In the next data set the target is T1, Impα3 (Homo sapiens, UniProt O00629).
T1 construct: Human importin α3 isoform (residues 1–521); made in house
T1 sequence (O00629 1-521): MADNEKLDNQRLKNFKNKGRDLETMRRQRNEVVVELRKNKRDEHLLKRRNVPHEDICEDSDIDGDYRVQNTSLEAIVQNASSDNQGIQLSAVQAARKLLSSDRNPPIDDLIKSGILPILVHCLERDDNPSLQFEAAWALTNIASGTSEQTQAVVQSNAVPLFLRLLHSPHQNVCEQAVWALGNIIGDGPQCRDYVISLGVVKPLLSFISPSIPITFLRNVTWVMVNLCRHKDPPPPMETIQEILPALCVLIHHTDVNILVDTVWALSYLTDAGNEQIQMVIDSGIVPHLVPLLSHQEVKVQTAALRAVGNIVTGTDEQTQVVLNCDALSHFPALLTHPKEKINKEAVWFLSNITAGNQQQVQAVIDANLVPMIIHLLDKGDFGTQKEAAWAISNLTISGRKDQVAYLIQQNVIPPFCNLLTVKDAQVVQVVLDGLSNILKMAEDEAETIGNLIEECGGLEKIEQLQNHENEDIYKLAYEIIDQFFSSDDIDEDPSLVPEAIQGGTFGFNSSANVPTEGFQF
Briefly: Biolayer interferometry (BLI) binding to Impα3. The note with it: BLItz, Impα3 immobilized via His-tag (0.25 μM), peptide 1–10 μM, 10 × kinetics buffer, 25 °C, error from pseudo-first order fit, at least two repeats. The protocol:
(§1) The association (kon) and dissociation (koff) rate constants of the binding of D-NLS peptides to either Impα3 or ∆Impα3 were determined by using a BLItz system (ForteBio, Pall, Barcelona, Spain). The buffer used in the experiments was that recommended by the manufacturer. […] The peptide concentrations were in a range from 1 to 10 μM during the association step. The general scheme of the protein association/dissociation reactions in the BLItz system for the D-NLS peptides was as follows: 30 s of initial baseline acquisition with the 10 × kinetics buffer (provided by the manufacturer); 120 s of loading either Impα3 and ∆Impα3 into the biosensor; 30 s of baseline acquisition with the 10 × kinetics buffer; 120 s of association of each peptide to the biosensor (which had been previously loaded with the importin species); and 120 s of monitoring of the dissociation of each peptide from the biosensor. All experiments were carried out at 25 °C.
(§2) Fittings of the BLI sensorgrams was carried out by using KaleidaGraph, as previously described. The interferometry response during the association step, R(t) (measured in response units, RU), and the binding rate, dR(t)/dt, could be used to evaluate the kinetics of the formation of the complex between Impα3/∆Impα3 and each D-NLS, according to:(2) dR/dt=konD-NLSRmax−Rt−koffR(t) where Rmax is proportional to the total concentration of biosensor-bound importin species; and [D-NLS] represents the concentration of the corresponding D-NLS peptide.
(§3) In Equation (2), R(t) is given by:(3) Rt= Req−Reqe^(−kobs t−t0) where Req is the steady-state (or equilibrium) response obtained at infinite time, when dR(t)/dt = 0, and t0 = 180 s is the time at which the association step between biosensor-immobilized Impα3/∆Impα3 and D-NLS in the solution started. We fitted the experimentally obtained R(t) under any condition as:(4) Rt= Req−Reqe^−kobs t−t0−R’eq(t−t0) where R^′eq was included to consider the lineal drift observed at longer times.
(§4) The dissociation process was always fitted to a single exponential, with R(t) given by:(6) Rt=R1 e^(−kofft−t0)−R^″eq(t−t0) where t0 = 300 is the time at which the dissociation of the D-NLS from the biosensor-bound Impα3/∆Impα3 started in our experimental set-up, R1 is the response level when dissociation starts, and the parameter R^″eq considers the linear drift observed at longer times.
(§5) The experiments were repeated at least twice for each peptide with each importin species.
(BLI is a label-free optical method that tracks binding on a fibre tip over time.)

Another data set concerns the target T2, ∆Impα3 (Homo sapiens, UniProt O00629).
T2 construct: IBB-depleted species of Impα3 (residues 64–521 of the intact protein); made in house
T2 sequence (O00629 64-521): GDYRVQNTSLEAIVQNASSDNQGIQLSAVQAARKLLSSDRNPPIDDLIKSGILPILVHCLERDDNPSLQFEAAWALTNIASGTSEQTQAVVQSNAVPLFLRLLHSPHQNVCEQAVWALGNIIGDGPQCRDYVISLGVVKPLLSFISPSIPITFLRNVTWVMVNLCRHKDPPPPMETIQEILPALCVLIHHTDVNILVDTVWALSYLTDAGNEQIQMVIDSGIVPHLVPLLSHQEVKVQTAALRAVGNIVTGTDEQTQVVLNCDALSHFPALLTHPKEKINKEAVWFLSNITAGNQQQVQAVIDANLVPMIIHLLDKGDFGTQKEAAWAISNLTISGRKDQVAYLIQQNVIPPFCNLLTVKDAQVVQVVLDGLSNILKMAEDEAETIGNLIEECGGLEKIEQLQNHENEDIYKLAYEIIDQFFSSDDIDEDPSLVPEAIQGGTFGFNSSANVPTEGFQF
The data set is described as follows: Biolayer interferometry (BLI) binding to ∆Impα3. The note with it: BLItz, ∆Impα3 immobilized via His-tag (0.25 μM), peptide 1–10 μM, 10 × kinetics buffer, 25 °C, error from pseudo-first order fit, at least two repeats. The protocol:
as §1, §2, §3, §4, §5

Data set [7] has as its target L-NLS-NUPR1 (Homo sapiens) (UniProt O60356). The data set is described as follows: ITC. The conditions noted are these: cited from earlier work.
Data set [8] has as its target L-NLS-NUPR1phospho (Homo sapiens) (UniProt O60356). The data set is described as follows: ITC. The conditions noted are these: cited from earlier work.
Data set [9] concerns the target L-NLS-PADI (NLS2-PADI4) (Homo sapiens) (UniProt Q9UM07). Briefly: ITC. The conditions noted are these: cited from earlier work.
For data set [10], the target named is L-NLS-NUPR1L (Homo sapiens) (UniProt A6NF83). Briefly: fluorescence. The note with it: cited from earlier work.
Data set [11] has as its target L-NLS-PADI (NLS2-PADI4) (Homo sapiens) (UniProt Q9UM07). Briefly: fluorescence. The note with it: cited from earlier work.
Data set [12] addresses L-NLS-NUPR1phospho NLS (Homo sapiens) (UniProt O60356). The conditions noted are these: cited from earlier work. The source holds these as a separate data set.
Data set [13] addresses L-NLS-NUPR1 NLS (Homo sapiens) (UniProt O60356). The note with it: cited from earlier work. This is another data set of the same source.
In data set [14] the target is L-NLS-NUPR1L NLS (Homo sapiens) (UniProt A6NF83). Briefly: ITC. The conditions noted are these: cited from earlier work.
Data set [15] addresses L-NLS-NUPR1L (Homo sapiens) (UniProt A6NF83). Briefly: ITC. The conditions noted are these: cited from earlier work.

L-NLS-PADI (NLS2-PADI4) (Homo sapiens), sequence (Q9UM07 498-526): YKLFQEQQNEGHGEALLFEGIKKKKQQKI
L-NLS-NUPR1L NLS (Homo sapiens), sequence (A6NF83 60-80): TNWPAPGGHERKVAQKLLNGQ
L-NLS-NUPR1 (Homo sapiens), sequence (O60356 54-74): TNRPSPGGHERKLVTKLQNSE
L-NLS-NUPR1L (Homo sapiens), sequence (A6NF83 51-74): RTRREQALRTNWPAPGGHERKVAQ

On to Importin α3 (from UniProt O00629), for which the Kd in data set [1] is 27 µM; in data set [2], 1.7 µM; in [3], 23 µM; in data set [4], 3 µM; in data set [5], 4 µM.
Regarding “YT^54NRPSPGGHERKLVTKLQNSE^74 [D-NLS-NUPR1, D-enantiomeric, isolated NLS region of NUPR1 (residues 54–74 of the intact protein)]”, the “Hydrodynamic radius Rh” value in data set [6] (D-peptides, by comparison with D of dioxane (1%, Rh 2.12 Å), 50 mM deuterated Tris pH 7.2, 10 °C) was 9 ± 1 Å. The “Diffusion coefficient D” value in data set [6] (50 mM deuterated Tris pH 7.2, 100% D2O, 10 °C) is reported as 1.78 ± 0.08 cm^2 s^−1 × 10^6. For the same substance, the kon amounted to 50000 ± 10000 M⁻¹ s⁻¹ on Impα3 and 110000 ± 20000 M⁻¹ s⁻¹ on ∆Impα3.
Take “importin α3 (Impα3) 1-521 (from UniProt O00629)”: the Kd was 1.7 µM in [7]; 27 µM in [8]; 23 µM in data set [9]; 3 µM in data set [10]; 4 µM in data set [11].
Turning to “∆Importin α3 IBB-deleted (from UniProt O00629)”, the dissociation constant (Kd) in data set [12] was 29 µM; in [13], 0.95 µM; in data set [14], 5.5 µM; in [3], 4.37 µM; in [5], 4 µM.
Consider ∆Impα3 64-521 (from UniProt O00629), for which the Kd in [7] is 0.95 µM; in data set [15] it was 5.5 µM; in [8], 29 µM; in data set [9], 4.37 µM; in data set [11], 4 µM.
